Experimental data taken from US20240360234A1 (NKARTA, published 2024).

T1: CD70-hFc complex (extracellular domain of human CD70 fused with the Fc region of human IgG1) (human) (UniProt P32970)
T1 sequence (looked up): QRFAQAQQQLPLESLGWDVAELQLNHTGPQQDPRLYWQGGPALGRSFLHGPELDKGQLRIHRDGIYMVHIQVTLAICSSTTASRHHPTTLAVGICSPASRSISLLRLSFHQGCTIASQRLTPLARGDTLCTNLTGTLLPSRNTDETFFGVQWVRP

B1: NK71 anti-CD70 CAR (scFv, not shown: a dimerising Fc or GST; small tags and cut ends)
scFv: QVTLKESGPVLVKPTETLTLTCTVSGFSLSNARMGVTWIRQPPGKALEWLAHIFSNDEKSYSTSLKSRLTISKDTSKTQVVLTMTNMDPVDTATYYCARIRDYYDISSYYDYWGQGTLVSVSSGGGGSGGGGSGGGGSDIQMTQSPSAMSASVGDRVTITCRASQDISNYLAWFQQKPGKVPKRLIYAASSLQSGVPSRFSGSGSGTEFTLTISSLLPEDFATYYCLQLNSFPFTFGGGTKVEIN
B2: CD70-hFc complex (extracellular domain of human CD70 fused with the Fc region of human IgG1) (Fc fusion, UniProt P32970 39-193, looked up)
chain: T1 sequence (looked up)
notes: range 39-193; Soluble reagent added at 2 or 10 ug/ml and detected with an anti-human Fc-APC antibody; not shown: Fc region of human IgG1, at the N-terminus of the fusion

Columns and labels:
[1] = target: T1, CD70-hFc complex (extracellular domain of human CD70 fused with the Fc region of human IgG1) (human); assay: flow cytometry, CD70-hFc at 2 ug/mL on NK71-transduced Jurkat cells (about 16% NK71 positive; the cells also carry endogenous CD27)
[2] = target: T1, CD70-hFc complex (extracellular domain of human CD70 fused with the Fc region of human IgG1) (human); assay: flow cytometry, CD70-hFc at 10 ug/mL on NK71-transduced Jurkat cells (about 16% NK71 positive; the cells also carry endogenous CD27)
[3] = target: T2, CD27 (endogenous, on Jurkat cells) (UniProt P26842 20-260, limits assumed); assay: flow cytometry, CD70-hFc at 2 or 10 ug/ml on native Jurkat cells, anti-human Fc-APC detection
T2 construct: whole, on cells; also called the ligand for CD70
Procedure: FIGS. 27A-27F show data related to the ability of anti-CD70 CAR-expressing Jurkat cells to bind human bind CD70. […] Moving left to right are negative control, control for the antibody to human Fc, binding when 2 ug/ml of a CD70-hFc complex is incubated with the Jurkat cells and binding is detected with the human Fc-APC antibody, and binding when 10 ug/ml of a CD70-hFc complex is incubated with the Jurkat cells and binding is detected with the human Fc-APC antibody. […] Moving left to right is a control for the antibody to murine Fc, binding when 2 ug/ml of a CD70-murine Fc complex is incubated with the Jurkat cells and binding is detected with a murine Fc-APC antibody, and binding when 10 ug/ml of a CD70-murine Fc complex is incubated with the Jurkat cells and binding is detected with the murine Fc-APC antibody, and detection of Flag tag (present in the NK71/72 CAR constructs, but not native Jurkat cells). […] Moving left to right are negative control, control for the antibody to human Fc, binding when 2 ug/ml of a CD70-hFc complex is incubated with the Jurkat cells and binding is detected with the human Fc-APC antibody, and binding when 10 ug/ml of a CD70-hFc complex is incubated with the Jurkat cells and binding is detected with the human Fc-APC antibody. […]

T2 sequence (P26842 20-260 limits assumed): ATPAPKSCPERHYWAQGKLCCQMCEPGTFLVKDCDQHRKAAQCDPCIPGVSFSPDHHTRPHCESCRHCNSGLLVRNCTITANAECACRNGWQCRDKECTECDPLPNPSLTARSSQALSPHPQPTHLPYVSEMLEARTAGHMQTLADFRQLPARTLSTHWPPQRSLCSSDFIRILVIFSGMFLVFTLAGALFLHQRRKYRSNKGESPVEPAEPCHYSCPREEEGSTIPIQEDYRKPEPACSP

Row | Binder | percent of Jurkat cells binding CD70 [1] [%] | percent of Jurkat cells binding CD70 [2] [%] | binding result [3]
1 | B1 | 50 | > 80 | –
2 | B2 | – | – | binds
